Ends that are not written are not given here. * marks the point of attachment. LacNAc = N-acetyllactosamine (disaccharide N-linked to the Asn side chain), CC(=O)N[C@@H]1[C@@H](O)[C@H](O[C@@H]2O[C@H](CO)[C@H](O)[C@H](O)[C@H]2O)[C@@H](CO)O[C@H]1*; βGlcNAc = CC(=O)N[C@@H]1[C@@H](O)[C@H](O)[C@@H](CO)O[C@H]1*
T1: Q11
T1 peptide: Ac-QQKFQFQFEQQ-NH2


Tests used:
[1] = biological target: the molecule itself; assay: circular dichroism + transmission electron microscopy
[2] = biological target: T1, Q11; assay: co-sedimentation

| Binder | binding result [1] | binding result [2] |
| --- | --- | --- |
| N(LacNAc)SGSGQQKFQFQFEQQ-NH2 [LacNAc-Q11] | binds |  |
| N(βGlcNAc)SGSGQQKFQFQFEQQ-NH2 [GlcNAc-Q11] | binds | binds |
